Measured values published in US9494574B2, “T-cell death-inducing epitopes” (AbGenomics Cooperatief U.A., priority 2004, dated 2016).
“Also recorded” adds a separate entry of the source.

Tests used:
[1] = tested on: in vitro activated human T-cells; assay: Induction of death of activated human T-cells by monoclonal antibodies (annexin V staining, FACS, CD3-positive gated); assay type: cell-based; details: for Percentage of apoptotic T-cells: Day 7, in vitro activated human T-cells, hybridoma culture supernatant, 6 hours, annexin V positive among CD3-positive cells; for percentage of in vitro activated T-cells undergoing apoptosis compared to that of untreated cells: annexin V staining and FACS analysis; for induction of death (apoptosis) of in vitro activated human T-cells: result in words
Method: Activated T cells (see above) were resuspended to a final concentration of 5×10^5 cells/ml in RPMI medium containing 5 ng/ml of IL-2, and treated with control Ig, m128-9F9, m152-15A7, or m166-43B6.
(§1) It is well known that T-cell death-inducing antibodies can be used as therapeutic agents to treat T-cell-related diseases such as transplantation rejections, autoimmune diseases, and allergy. Three monoclonal antibodies against human T-cells were generated, and the capabilities of these monoclonal antibodies to induce apoptosis of activated human T-cells were examined. Culture supernatants containing monoclonal antibodies secreted by hybridoma cell line m128-9F9, m152-15A7, or m166-43B6 were incubated with either non-activated human T-cells (Day 0) or in vitro activated human T-cells (Day7) for 6 hours. Cells were stained with annexin V after incubation, and subjected to FACS analysis. CD3-positive cells were gated to ensure counting of either in vitro activated human T-cells or resting human T-cells. The apoptotic cells were annexin V staining-positive. […] This capability of inducing apoptosis of activated T-cells yet sparing the resting T-cells is a unique feature of the apoptotic pathway and is a dominating feature of therapeutic reagents targeting T-cell-mediated diseases.

[2] = tested on: non-activated human T-cells; assay: Apoptosis of non-activated (resting) human T-cells with monoclonal antibodies (annexin V staining, FACS, CD3-positive gated); assay type: cell-based; details: for Percentage of apoptotic T-cells: Day 0, non-activated human T-cells, hybridoma culture supernatant, 6 hours, annexin V positive among CD3-positive cells; for effect on non-activated human T-cells: result in words
Source text: as §1

Molecule | Percentage of apoptotic T-cells [1] [%] | percentage of in vitro activated T-cells undergoing apoptosis compared to that of untreated cells [1] | induction of death (apoptosis) of in vitro activated human T-cells [1] | Percentage of apoptotic T-cells [2] [%] | effect on non-activated human T-cells [2]
m128-9F9: mouse monoclonal antibody from hybridoma raised against Concanovalin A-activated human T-cells; induces T-cell apoptosis (antibody, V domains shown) VL: DVLMTQTPLSLPVSLGDQASISCRSSQSIVNSNGNTYLEWYLQKPGQSPKLLIYKVSNRFSGVPDRFSGSGSGTDFTLKISRVEAEDLGVYYCFQGSHVPWTFGGGTKLEIK VH: EVQLVETGGGLVQPKGSLKLSCAASGFTFNTNAMNWVRQAPGKGLEWVARIRSKSNNYATYYADSVKDRFTISRDDTQSMIYLQMNNLKTEDTGMYYCVRGGSYWYFDVWGAGTTVTVSS | 28.71 | about doubled | able to induce T-cell apoptosis in vitro; also recorded: induced death of in vitro activated human T-cells | 5.82 | did not affect non-activated human T-cells
m152-15A7: mouse monoclonal antibody from hybridoma raised against Concanovalin A-activated human T-cells; induces T-cell apoptosis (antibody, V domains shown) VL: DILMTQTPLSLPVSLGDQASISCRSSQSIVHNDGNTYFEWYLQKPGQSPKLLIYKVSNRFSGVPDRFSGSGSGTHFTLNISRVEAEDLGIYYCFQGSYVPLTFGAGTKLELK VH: DVQLVESGGGLVQPGGSRKLSCAASGFTFSSFGMHWVRQAPEKGLEWVAYINGGSSTIFYANAVKGRFTISRDNPKNTLFLQMTILRSEDTAIYYCGRYASYGGGAMDYWGQGTSVTVSS | 51.66 | about doubled | able to induce T-cell apoptosis in vitro; also recorded: induced death of in vitro activated human T-cells | 5.23 | did not affect non-activated human T-cells
m166-43B6: mouse monoclonal antibody from hybridoma raised against Concanovalin A-activated human T-cells; induces T-cell apoptosis (antibody, V domains shown) VL: ENVLTQSPAIMSASPGEKVTMTCRASSTVNSTYLHWFQQKSGASPKLWIYGSSNLASGVPARFSGSGSGTSYSLTISSVEAEDAATYYCQQYSGYPLTFGAGTTLELK VH: EVQLQQSGPDLVKPGALVKISCKASGYSFTAYYIHWVKQSHGKSLEWIGRVNPNTGGTSYNPKFKGKAILNVDKSSSTAYMELRSLTSEDSAVYYCARSGSPYYRYDDWGQGTTLTVSS | 49.44 | about doubled | able to induce T-cell apoptosis in vitro; also recorded: induced death of in vitro activated human T-cells | 6.57 | did not affect non-activated human T-cells
